We go through 94 variants from the supplement of paper PMC10567573.

Sequences and labels used below:
B1: WDFY2 (parent)
chain: FWNFKQMWDSKKIGLRQHHCRKCG
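Also: lentivirally expressed fusions sorted by FACS into six bins by GFP to DsRed ratio, PSI derived from sequencing read proportions per bin multiplied by bin number.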

The data set covers variants of B1. Kind of data set: protein stability index of a GFP-peptide fusion (GPS, HEK-293T) (PSI 1-6); higher = more stable. The following applies: c terminus: a fixed tail appended.
As to FWNFKQMWDSKKIGLRQHNCRKCG [H19N], the protein stability index was determined as 2.68.

As for FWNFKQMWDSKKIGLRQHLCRKCG [H19L], the protein stability index amounted to 2.02.

For FWNFKQMWDSKKIGLRQHYCRKCG [H19Y], the protein stability index was determined as 1.76.

Turning to FWNFKQMWDSKKIGLRQHVCRKCG [H19V], the protein stability index was 1.98.

Take FWNFKQMWDSKKIGLRQHHLRKCG [C20L]: the protein stability index worked out at 2.09.

Consider FWNFKQMWDSKKIGLRQHHGRKCG [C20G], for which the protein stability index was 2.91.

On to FWNFKQMWDSKKIGLRQHHYRKCG [C20Y], for which the protein stability index stood at 1.84.

For the variant FWNFKQMWDSKKIGLRQHHQRKCG [C20Q], the protein stability index came to 2.15.

Consider FWNFKQMWDSKKIGLRQHHARKCG [C20A], for which the protein stability index came out at 1.82.

In the case of FWNFKQMWDSKKIGLRQHHNRKCG [C20N], the protein stability index came out at 2.31.

On to FWNFKQMWDSKKIGLRQHHKRKCG [C20K], for which the protein stability index was found to be 2.15.

Consider FWNFKQMWDSKKIGLRQHHSRKCG [C20S], for which the protein stability index is 2.49.

Consider FWNFKQMWDSKKIGLRQHHERKCG [C20E], for which the protein stability index turned out to be 2.47.

As for FWNFKQMWDSKKIGLRQHHTRKCG [C20T], the protein stability index came to 2.28.

Consider FWNFKQMWDSKKIGLRQHHHRKCG [C20H], for which the protein stability index was 3.07.

Consider FWNFKQMWDSKKIGLRQHHIRKCG [C20I], for which the protein stability index worked out at 2.01.

Turning to FWNFKQMWDSKKIGLRQHHPRKCG [C20P], the protein stability index was 1.94.

Regarding FWNFKQMWDSKKIGLRQHHRRKCG [C20R], the protein stability index is 2.37.

With FWNFKQMWDSKKIGLRQHHFRKCG [C20F], the protein stability index came to 2.54.

On to FWNFKQMWDSKKIGLRQHHDRKCG [C20D], for which the protein stability index came out at 1.89.

As to FWNFKQMWDSKKIGLRQHHWRKCG [C20W], the protein stability index was found to be 3.08.

As for FWNFKQMWDSKKIGLRQHHVRKCG [C20V], the protein stability index is 1.73.

With FWNFKQMWDSKKIGLRQHHMRKCG [C20M], the protein stability index was 3.04.

As for FWNFKQMWDSKKIGLRQHHCRKHG [C23H], the protein stability index worked out at 2.24.

For FWNFKQMWDSKKIGLRQHHCRKKG [C23K], the protein stability index worked out at 2.38.

Regarding FWNFKQMWDSKKIGLRQHHCRKMG [C23M], the protein stability index came out at 1.94.

As for FWNFKQMWDSKKIGLRQHHCRKYG [C23Y], the protein stability index amounted to 1.92.

On to FWNFKQMWDSKKIGLRQHHCRKNG [C23N], for which the protein stability index came out at 2.21.

For the variant FWNFKQMWDSKKIGLRQHHCRKTG [C23T], the protein stability index is 2.44.

On to FWNFKQMWDSKKIGLRQHHCRKGG [C23G], for which the protein stability index was determined as 2.14.

For the variant FWNFKQMWDSKKIGLRQHHCRKPG [C23P], the protein stability index stood at 2.16.

Consider FWNFKQMWDSKKIGLRQHHCRKAG [C23A], for which the protein stability index is 1.78.

As for FWNFKQMWDSKKIGLRQHHCRKSG [C23S], the protein stability index was 1.78.

Take FWNFKQMWDSKKIGLRQHHCRKRG [C23R]: the protein stability index was determined as 1.79.

FWNFKQMWDSKKIGLRQHHCRKIG [C23I]: the protein stability index was 2.48.

FWNFKQMWDSKKIGLRQHHCRKVG [C23V]: the protein stability index was determined as 1.79.

For the variant FWNFKQMWDSKKIGLRQHHCRKDG [C23D], the protein stability index turned out to be 1.89.

Take FWNFKQMWDSKKIGLRQHHCRKFG [C23F]: the protein stability index was determined as 2.17.

For the variant FWNFKQMWDSKKIGLRQHHCRKWG [C23W], the protein stability index was found to be 2.45.

For the variant FWNFKQMWDSKKIGLRQHHCRKLG [C23L], the protein stability index worked out at 2.01.

Regarding FWNFKQMWDSKKIGLRQHHCRKCK [G24K], the protein stability index was determined as 1.98.

Turning to FWNFKQMWDSKKIGLRQHHCRKCM [G24M], the protein stability index stood at 2.38.

With FWNFKQMWDSKKIGLRQHHCRKCC [G24C], the protein stability index was 2.4.

Take FWNFKQMWDSKKIGLRQHHCRKCQ [G24Q]: the protein stability index came out at 1.95.

Consider FWNFKQMWDSKKIGLRQHHCRKCF [G24F], for which the protein stability index came to 1.23.

For the variant FWNFKQMWDSKKIGLRQHHCRKCE [G24E], the protein stability index turned out to be 2.13.

FWNFKQMWDSKKIGLRQHHCRKCT [G24T]: the protein stability index came out at 2.7.

Consider FWNFKQMWDSKKIGLRQHHCRKCW [G24W], for which the protein stability index worked out at 1.68.

Consider FWNFKQMWDSKKIGLRQHHCRKCP [G24P], for which the protein stability index was 2.03.

As for FWNFKQMWDSKKIGLRQHHCRKCY [G24Y], the protein stability index worked out at 2.73.

Take FWNFKQMWDSKKIGLRQHHCRKCI [G24I]: the protein stability index came out at 1.51.

On to FWNFKQMWDSKKIGLRQHHCRKCL [G24L], for which the protein stability index was 1.43.

Take FWNFKQMWDSKKIGLRQHHCRKCA [G24A]: the protein stability index came to 1.58.

With FWNFKQMWDSKKIGLRQHHCRKCN [G24N], the protein stability index was determined as 1.67.

Turning to FWNFKQMWDSKKIGLRQHHCRKCV [G24V], the protein stability index stood at 3.27.

Take FWNFKQMWDSKKIGLRQHHCRKCH [G24H]: the protein stability index worked out at 1.71.

For the variant FWNFKQMWDSKKIGLRQHHCRKCR [G24R], the protein stability index stood at 2.3.

Take FWNFKQMWDSKKIGLRQHHCRKCD [G24D]: the protein stability index is 2.09.

FWNFKQMWDSKKIGLRQHHCRKCS [G24S]: the protein stability index came to 2.39.

In the case of FWNFKQMWDSKKIGLGQHHCRKCG [R16G], the protein stability index was 1.54.

As to FWNFKQMWDSKKIGLYQHHCRKCG [R16Y], the protein stability index worked out at 1.85.

Turning to FWNFKQMWDSKKIGLCQHHCRKCG [R16C], the protein stability index is 1.59.

For the variant FWNFKQMWDSKKIGLHQHHCRKCG [R16H], the protein stability index is 2.06.

Take FWNFKQMWDSKKIGLFQHHCRKCG [R16F]: the protein stability index worked out at 3.39.

For FWNFKQMWDSKKIGLEQHHCRKCG [R16E], the protein stability index came to 2.92.

Turning to FWNFKQMWDSKKIGLLQHHCRKCG [R16L], the protein stability index stood at 1.76.

FWNFKQMWDSKKIGLVQHHCRKCG [R16V]: the protein stability index was found to be 2.1.

Regarding FWNFKQMWDSKKIGLAQHHCRKCG [R16A], the protein stability index was determined as 1.97.

As for FWNFKQMWDSKKIGLQQHHCRKCG [R16Q], the protein stability index is 2.66.

In the case of FWNFKQMWDSKKIGLPQHHCRKCG [R16P], the protein stability index came to 3.42.

Regarding FWNFKQMWDSKKIGLMQHHCRKCG [R16M], the protein stability index amounted to 1.94.

With FWNFKQMWDSKKIGLKQHHCRKCG [R16K], the protein stability index turned out to be 1.53.

For FWNFKQMWDSKKIGLDQHHCRKCG [R16D], the protein stability index is 2.06.

On to FWNFKQMWDSKKIGLNQHHCRKCG [R16N], for which the protein stability index turned out to be 1.84.

With FWNFKQMWDSKKIGLTQHHCRKCG [R16T], the protein stability index is 1.67.

For the variant FWNFKQMWDSKKIGLSQHHCRKCG [R16S], the protein stability index was 2.15.

Consider FWNFKQMWDSKKIGLRQYHCRKCG [H18Y], for which the protein stability index was found to be 2.5.

As to FWNFKQMWDSKKIGLRQNHCRKCG [H18N], the protein stability index came to 3.5.

With FWNFKQMWDSKKIGLRQVHCRKCG [H18V], the protein stability index stood at 1.83.

For the variant FWNFKQMWDSKKIGLRQLHCRKCG [H18L], the protein stability index was 1.76.

With FWNFKQMWDSKKIGLRQAHCRKCG [H18A], the protein stability index amounted to 1.73.

FWNFKQMWDSKKIGLRQWHCRKCG [H18W]: the protein stability index came to 2.18.

Regarding FWNFKQMWDSKKIGLRQMHCRKCG [H18M], the protein stability index turned out to be 1.38.

With FWNFKQMWDSKKIGLRQQHCRKCG [H18Q], the protein stability index worked out at 1.44.

On to FWNFKQMWDSKKIGLRQPHCRKCG [H18P], for which the protein stability index turned out to be 2.05.

Regarding FWNFKQMWDSKKIGLRQTHCRKCG [H18T], the protein stability index worked out at 1.56.

As to FWNFKQMWDSKKIGLRQDHCRKCG [H18D], the protein stability index turned out to be 1.79.

For the variant FWNFKQMWDSKKIGLRQIHCRKCG [H18I], the protein stability index came out at 1.8.

Turning to FWNFKQMWDSKKIGLRQKHCRKCG [H18K], the protein stability index was found to be 2.06.

On to FWNFKQMWDSKKIGLRQEHCRKCG [H18E], for which the protein stability index worked out at 2.25.

Take FWNFKQMWDSKKIGLRQRHCRKCG [H18R]: the protein stability index turned out to be 2.5.

As to FWNFKQMWDSKKIGLRQFHCRKCG [H18F], the protein stability index came out at 1.51.

For the variant FWNFKQMWDSKKIGLRQCHCRKCG [H18C], the protein stability index came to 2.94.

Regarding FWNFKQMWDSKKIGLRQSHCRKCG [H18S], the protein stability index was 1.84.
